These results are taken from a protein production outcome set (Wang et al. 2014).

A short description of the data set: label from the status in PepcDB records.

As for “MAKTGDPARAVTPPAIGTLDFALDRSSPVPLYYQLARQLEAAIEHGVLAPGNLLGNEVDLSVRLGLSRPTVRQAIQSLVDKGLLVRRRGVGTQVVHSQVRRPLELSSLYDDLEAAGQDPGTRVVRNEDVPATAEVAAALGVTEGTGVTVLERLRLTHGQPVAMLCNHLPAGLLELDDARLESTGLYRMMRARGITLHSARQTVGARIASREEAERLGEREGAALLTMRRIAYDDTGRPVEYGTHVYRASRYAFDFQLLVRN”, the protein production result was “not failed”.

With “MAKTPAAAPTATDPVAIAGPAPETIAVHGHRIACDGVGGALGHPRVWLEMGAAGFVDCPYCDRRFVAATDAGHDEHLAPGVYVDAAGHLEHHHHHH”, the protein production result is given as “failed”.

As to “MAKVTVILTSYNKPNTVGAAIESVLSQSFQDWELWIMDDASNEETQQVIDSYMLYPNVYYYNSQVKDEERHKSTRYATLINEAISRSTGDYLCYLTDDNYYLPERLQKMVQYLERYPSVDVVYSKQLVRTVDNQLITQAERIRPTKGTIRYAENIVDHCSVMHRRSLAEKVYETYGSYWNDDPICWHNGDAFFWNRLSAFALFYPINEVLDVCLKSPTSFQALNAFLPEYLPSGTLVKGLGADVYLIEDNHRRAITPTMFQQLHYREENVVHIPDPVLFKYKEGPAIDEHIWEQGKLFPNHRLIKASQEPHIYYVENHRKRHILTHKEFRLYKFRASEVVEVSRSFLDSIPTGPPISAHVNNQHPLPEGLLVRCGFKFYLSGNNRLYPIKSRVMKKLNLQMKNAVFLDSRAIGRYEQGETIEWKTNKCQPRFNTSSLEHHHHHH”, the protein production result was “failed”.

With “MAKWRVAAILSGALLAADARAEALRMLLTQIPGIIEQAPDGASMRGVGIDLMKEVGRRAGVELRFEAYPQARARLLVERQRDACLPVAHLPEQAANFKWSAPLLQMRLVLLARGDDGRQLRSLEQAGGLRVGAMRGTMAAARLKERGVAVEESADYLSGLEKLRLGRLDLWAMLDVGVASLARRLEMPPPRVAWVMDTLDVSFACNRQVDDALIARLDGAIAAMRADGSMARFDLR”, the protein production entry is given as “failed”.

As to “MALASSEALVNLVEYARWNQCGVSGGPGTKEFSAEGTEAAKGGRRKAAGGRAGRGGAGRERGGTRDPAMGPGARLALLALLALGGDPAAATGREDTFSALTSVARALAPERRLLGTLRRYLRGEEARLRDLTRFYDKVLSLHEDLKIPVVNPLLAFTLIKRLQSDWRNVVHSLEATENIRALKDGYEKVEQDLPAFEDLEGAARALMRLQDVYMLNVKGLARGVFQRVTGSSITDLYSPRQLFSLTADDCFQVGKVAYDTGDYYHAIPWLEEAVSLFRRAHGEWKTEDEASLEDALDYLAFACFQVGNVSCALSLSREFLVYSPDNKRMARNVLKYERLLAENGHQMAAETAIQRPNVPHLQTRDTYEGLCQTLGSQPTHYQIPSLYCSYETNSSPYLLLQPARKEVVHLRPLIALYHDFVSDEEAQKIRELAEPWLQRSVVASGEKQLQVEYRISKSAWLKDTVDPMLVTLDHRIAALTGLDIQPPYAEYLQVVNYGIGGHYEPHFDHATSPSSPLYRMKSGNRVATFMIYLSSVEAGGATAFIYGNFSVPVVKLSSVEAGGATAFIYGNFSVPVVKLHVFTVPMDGGPWCTCGHWVANKWIHEYGQEFRRPCSTNPED”, the protein production entry is “failed”.

For “MALAVTSSSTAISGSSFSRSGASSESKALQICSIRLSDRTHLSQRRYSMKPLNAESHSRSESWVTRASTLIAPEVEEKGGEVEDFEQLAKKLEDASPLEIMDKALERFGDQIAIAFSGAEDVALIEYARLTGKPFRVFSLDTGRLNPETYRLFDAVEKQYGIRIEYMFPDAVEVQALVRNKGLFSFYEDGHQECCRVRKVRPLRRALKGLKAWITGQRKDQSPGTRSEIPIVQVDPVFEGLDGGVGSLVKWNPLANVEGADVWNFLRTMDVPVNALHAQGYVSIGCEPCTRPVLPGQHEREGRWWWEDAKAKECGLHKGNIKEEDGAADSKPAAVQEIFESNNVVALSKGGVENLLKLENRKEAWLVVLYAPWCPFCQAMEASYIELAEKLAGKGVKVAKFRADGEQKEFAKQELQLGSFPTILLFPKRAPRAIKYPSEHRDVDSLMSFVNLLR”, the protein production result was “failed”.

With “MALILRPPHGYSVRNRYWPGSGASNLPYLFEDFALDGDRRELRRGNSLIAVEPQVFDLLQYLIRNRERVVSKDDLVDAVWQGRIVSDATLASRVNAARSALQDNGEQQRLVRTFPRRGFRFVGTVHEEAGAEATAPVEPAKPGLGIPARPSIAVLPFVNLSGDPDQDYFADGMVEDIITGLSRIRWLFVIARNSSFTYKGRAVDMKQVGQELGVRYVLEGSVRKVGSRVRITGQLIDTEDGGHLWAERYDRELTDVFALQDEITISVVAAIEPNLRRAEIERVKRQRPDSLDAYDLFLRALPDVYTFMPQGAARGLPLLDQALAIEPSYALVHGFAAWAHQTLFIRGGMQAEHSGKASRHAHAAIEHGSGDAMALALAGFTIGLVEHDRKLADEAFSQALSLSASCAFVYAFGCVPVAYGGDATRAIDWGEQALRLNPLDAMNCVPQGMIGFGNFLAGRHEQAIAAGRRAVEMNPGFSILHGWLAAPLARLGRIEEAKAAGSRLMALDPHFTIGRWSAAVGLAPAIIDDVTEAMRLAGLPA”, the protein production result is reported as “failed”.

Turning to “MALKLGLTEAVSLGITHISIYCDHFQIFELVMWRSVPDKDSIAMIMYDVQRIRQQLTSSTPLLVTGNQTNKLAYELALETLVSEISISIEEKALTCDKN”, the protein production result is “failed”.

As for “MALLCYNRGCGQRFDPETNSDDACTYHPGVPVFHDALKGWSCCKRRTTDFSDFLSIVGCTKGRHNSEKPPEPVKPEVKTTEKKELCELKPKFQEHIIQAPKPVEAIKRPSPDEPMTNLELKISASLKQALDKLKLSSGNEENKKEEDNDEIKIGTSCKNGGCSKTYQGLESLEEVCVYHSGVPIFHEGMKYWSCCRRKTSDFNTFLAQEGCTKGKHMWTKKDAGKKVVPCRHDLHQTGGEVTISVYAKNSLPELSRVEANSTLLNVIIVFEGEKEFDQNVKLWGVIDVKRSYVTMTATKIEITMRKAEPMQWASLELPAAKKQEKQKDDTTD”, the protein production result is recorded as “not failed”.

“MALLIITTILWAFSFSLIGEYLAGSVDSYFSVLMRVGLAALVFLPFLRTRGQSPRTIVLYMLVGAMQLGIMYLLAFRAYLYLTVSEFLLFTVFTPLYITLIYDLLSGRKLRWGYLLSAALAVLGAAIIRYDKVSDHFWTGLLLVQLSNLCFAIGMVGYKRLMEVRPMPQHNAFAWFYVGAFIVAVAAWFMLGNAQKLPTTTLQWSVLVWLGVVASGLGYFMWNYGATQVDAGTLGIMNNVHVPAGLLVNLAIWQEQPHWPSFISGALVILASLWVHRRWVAPHSGQTADDRRRGSAQSE”: the protein production entry is on record as “failed”.

As for “MALMQELYSTPASRLDSFVAQWLQPHREWKEEVLDAVRTVEEFLRQEHFQGKRGLDQDVRVLKVVKVGSFGNGTVLRSTREVELVAFLSCFHSFQEAAKHHKDVLRLIWKTMWQSQDLLDLGLEDLRMEQRVPDALVFTIQTRGTAEPITVTIVPAYRALGPSLPNSQPPPEVYVSLIKACGGPGNFCPSFSELQRNFVKHRPTKLKSLLRLVKHWYQQYVKARSPRANLPPLYALELLTIYAWEMGTEEDENFMLDEGFTTVMDLLLEYEVICIYWTKYYTLHNAIIEDCVRKQLKKERPIILDPADPTLNVAEGYRWDIVAQRASQCLKQDCCYDNRENPISSWNVKRARDIHLTVEQRGYPDFNLIVNPYEPIRKVKEKIRRTRGYSGLQRLSFQVPGSERQLLSSRCSLAKYGIFSHTHIYLLETIPSEIQVFVKNPDGGSYAYAINPNSFILGLKQQIEDQQGLPKKQQQLEFQGQVLQDWLGLGIYGIQDSDTLILSKKKGEALFPAS”, the protein production entry is recorded as “failed”.

“MALPIIVKWGGQEYSVTTLSEDDTVLDLKQFLKTLTGVLPERQKLLGLKVKGKPAENDVKLGALKLKPNTKIMMMGTREESLEDVLGPPPDN”: the protein production entry is recorded as “failed”.

Consider “MALQLATLCFVSFSALFFVVDPFSAVPFFLALTRNDDPRRRREIALRASVTAFAVLAAFALTGEWIFRLLGIGLPAFKVAGGVVLLLLALDMVRTQPSRTRITQGEVDASADKEDVAIVPLAMPLLAGPGSIATAIVLMVRARGEDWWHPLPVLLAIALTCLASYLILAGAARTEKVLGRTGLAILERVAGLLLVAIAVQFMMDGLAEGLPRAFPLR”, for which the protein production entry is “failed”.

As for “MALREQWAETAMGVVVLALTAGFLTYSLTVGGVHMKRGDYEISAKFGEAGSLAPGAAVTVAGVKVGTVSQITLEPKTYLAVAKLSIDPTVKLPADSTAKITSDGLLGGAHVAIAPGASLDDLKPGGEIENTQGAVDLFGLIGSVIRPQGGAATTSTPAEANPATQPAESYLEHHHHHH”, the protein production entry is “not failed”.
